Measurements reported in paper doi:10.1101/2021.08.27.457910.
pKd: −log10 of the molar value.

Assays:
Sgo1_(1-130) (human) = Sgo1_(1-130) (human) (UniProt Q5FBB7); assay: ITC
Sgo1_(1-415) (human) [1] = target: Sgo1_(1-415) (human) (UniProt Q5FBB7); assay: ITC
Sgo1_(1-415) (human) [2] = target: Sgo1_(1-415) (human) (UniProt Q5FBB7); assay: mass photometry

Substance: CPC_(ISB10-221) (INCENP_(1-58), Survivin and Borealin_(10-221)) (from UniProt Q9NQS7 1-58; O15392 1-142; Q53HL2 10-221) (complex)
- pKd (Sgo1_(1-130) (human)): 6.79

Substance: CPC_(ISB10-280) (INCENP_(1-58), Survivin full length and Borealin_(10-280)) (from UniProt Q9NQS7 1-58; O15392 1-142; Q53HL2 10-280) (complex)
- pKd (Sgo1_(1-130) (human)): 7.24
- pKd (Sgo1_(1-415) (human) [1]): 7.28
- dH (Sgo1_(1-415) (human) [1]): -6.58 kcal/mol
- stoichiometry N (Sgo1_(1-415) (human) [1]): 1

Substance: Sgo1_(1-415) (from UniProt Q5FBB7 1-415) (domain or fragment)
- stoichiometry N (Sgo1_(1-415) (human) [2]): 2

Substance: Survivin (from UniProt O15392 1-142) (natural protein)
- pKd (Sgo1_(1-130) (human)): 6.59
